T1: EGFRvIII fragment amino acid residues 1 to 18, displayed on yeast (human)
T1 construct: also called aa 1-18
T1 peptide: LEEKKGNYVVTDHGSCVR

T2: EGFRvIII fragment amino acid residues 3 to 18, displayed on yeast (human)
T2 construct: also called aa 3-18
T2 peptide: EKKGNYVVTDHGSCVR


How the values were obtained:
[1] = molecular target: T3, EGFRvIII, full length, overexpressed on glioblastoma cells (human, UniProt P00533 298-623); experiment: cell-based or functional assay
[2] = molecular target: T4, wild type human EGFR, full length, overexpressed on U87MG cells (human, UniProt P00533 25-1210); experiment: cell-based or functional assay
[3] = molecular target: T3, EGFRvIII, full length, overexpressed on …; experiment: cell-based or functional assay; remark: listed apart in the source
[4] = molecular target: T4, wild type human EGFR, full length, …; experiment: cell-based or functional assay; remark: listed apart in the source
[5] = molecular target: T5, recombinant human EGFRvIII protein (extracellular domain), native (human, UniProt P00533 298-623); experiment: ELISA Exp 1, mAb supernatant
T5 construct: also called hEGFRvIII
Procedure: (§1) Pre- and post-immune sera titers of animals were assessed by ELISA on recombinant EGFRvIII protein. Unless otherwise stated, all incubations were performed at room temperature. […] Microplates were washed three times in PBS and blocked for 30 min with PBS containing 1% bovine serum albumin (BSA, Sigma Cat #A7030). Blocking buffer was removed and 25 μl of serial dilutions of sera samples were added. […] After a 1-h incubation, microplates were washed 4 times and 25 μl of p-nitrophenyl phosphate (pNPP) substrate (Sigma-Aldrich Canada Co., Oakville, ON) at 1 mg/ml in carbonate buffer at pH 9.6 was added and further incubated for 30 min.
(§2) Antigens at 1-2 mg/ml were incubated at 95° C. for 5 min in PBS containing DTT at a final concentration of 40 mM. They were then incubated on ice for 5 min and diluted at their final coating concentration for ELISA purpose.
(§3) ELISA was performed as described above (serum titer determination) using 25 μl of mAb supernatant (Exp 1) or purified mAb at 1 μg/ml (Exp 2).

[6] = molecular target: T6, recombinant human EGFRvIII protein (extracellular domain), denatured (human, UniProt P00533 298-623); experiment: ELISA Exp 1, mAb supernatant
T6 construct: Same protein as m21 after 95 C for 5 min in PBS with 40 mM DTT (denatured, reduced); also called EGFRvIII Denatured
Procedure: as §1, §2, §3

[7] = molecular target: T7, recombinant human wild type EGFR protein (extracellular domain), native (human, UniProt P00533 25-645); experiment: ELISA Exp 1, mAb supernatant
T7 construct: also called wt EGFR; EGFR WT
Procedure: as §1, §2, §3

[8] = molecular target: T8, recombinant human wild type EGFR protein (extracellular domain), denatured (human, UniProt P00533 25-645); experiment: ELISA Exp 1, mAb supernatant
T8 construct: Same protein as m23 after 95 C for 5 min in PBS with 40 mM DTT (denatured, reduced); also called wt EGFR Denatured
Procedure: as §1, §2, §3

[9] = molecular target: T1, EGFRvIII fragment amino acid residues 1 …; experiment: yeast surface display, flow cytometry
Source text: (§4) Assessment of the binding of anti-EGFRvIII mAbs to the fusion proteins expressed on yeast cell surface was done by flow cytometry analysis. Briefly, yeast cells were labeled with both the anti-hEGFRvIII mAb and chicken anti-Myc antibody, the latter being used to monitor the level of expression of the fusion protein. Following a wash step, binding of the primary antibodies is probed by a two-color indirect fluorescence labeling using secondary antibodies specific for mouse and chicken antibodies, respectively.

[10] = molecular target: T5, recombinant human EGFRvIII protein …; experiment: ELISA Exp 2, purified mAb 1 ug/ml;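 note: ELISA of purified mAb binding to plate-coated antigen, native or heat/DTT-denatured, with pNPP substrate developed for 30 min and incubations at room temperature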
[11] = molecular target: T6, recombinant human EGFRvIII protein …; experiment: ELISA Exp 2, purified mAb 1 ug/ml;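 note: ELISA of purified mAb binding to plate-coated antigen, native or heat/DTT-denatured, with pNPP substrate developed for 30 min and incubations at room temperature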
[12] = molecular target: T7, recombinant human wild type EGFR …; experiment: ELISA Exp 2, purified mAb 1 ug/ml;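 note: ELISA of purified mAb binding to plate-coated antigen, native or heat/DTT-denatured, with pNPP substrate developed for 30 min and incubations at room temperature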
[13] = molecular target: T8, recombinant human wild type EGFR …; experiment: ELISA Exp 2, purified mAb 1 ug/ml;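 note: ELISA of purified mAb binding to plate-coated antigen, native or heat/DTT-denatured, with pNPP substrate developed for 30 min and incubations at room temperature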
[14] = molecular target: T4, wild type human EGFR, full length, …; experiment: flow cytometry dose-response, U87MG-EGFRwt cells
Procedure: (§5) Prior to analysis, cells were plated such that they were not more than 80% confluent on the day of analysis. Unless otherwise stated, all media are kept are 4° C. and all incubations are performed on wet ice. Cells were washed in PBS, harvested by the addition of cell dissociation buffer (Sigma), centrifuged and resuspended in complete medium at a cell density of 2×10⁶ cells/mL. Fifty μL/well of cells were distributed in a polypropylene v-bottom 96 well plate and serial 1/3 dilutions of purified mAbs starting at 100 nM were added and incubated for 2 hours. […] Cells were washed and re-suspended in medium containing Propidium iodide to exclude dead cells from analysis. Samples were filtered through a 60 μm nylon mesh filter plate (Millipore, Ireland) to remove cell aggregates. Flow cytometry analyses were performed on 2,000 viable single-cells events gated on forward scattering, side scattering parameters and propidium iodide dye exclusion using a BD-LSRFortessa flow cytometer (Becton-Dickinson Biosciences, CA, USA) and a standard filter set using BD FACSDiva™ acquisition software, according to manufacturer's instructions.
(§6) Specific detection of antibody binding was calculated as the mean fluorescent intensity of binding to each primary antibody after background level subtraction of the mean fluorescent intensity of binding of mouse IgG control. The data were analyzed with GraphPad Prism v 6.0 software using one-site specific binding with Hill slope non-linear regression curve fit model to determine Bmax (maximum specific binding) and Kdₐₚₚ (concentration needed to achieve a half-maximum binding at equilibrium) for each mAb tested.

[15] = molecular target: T3, EGFRvIII, full length, overexpressed on …; experiment: flow cytometry dose-response on U87MG-EGFRvIII cells, apparent Kd
Procedure: as §5, §6

[16] = molecular target: T3, EGFRvIII, full length, overexpressed on …; experiment: cell-based or functional assay; remark: listed apart in the source
[17] = molecular target: T4, wild type human EGFR, full length, …; experiment: flow cytometry dose-response, U87MG EGFR wt cells
Procedure: as §5, §6

[18] = molecular target: T3, EGFRvIII, full length, overexpressed on …; experiment: flow cytometry dose-response on DKMG EGFRvIII cells (n=1)
Procedure: as §5
(§7) These cells were grown in RPMI and 10% fetal bovine serum using standard culturing conditions.

[19] = molecular target: T3, EGFRvIII, full length, overexpressed on …; experiment: flow cytometry dose-response on DKMG EGFRvIII cells, apparent Kd (n=1)
Procedure: as §5, §7

[20] = molecular target: T3, EGFRvIII, full length, overexpressed on …; experiment: flow cytometry dose-response on U87MG EGFRvIII cells, apparent Kd (n=2)
Procedure: as §5, §7

[21] = molecular target: T2, EGFRvIII fragment amino acid residues 3 …; experiment: yeast surface display, flow cytometry
Source text: as §4

| Binder | % internalization (pHrodo surrogate assay, vs 225 mAb) [1] [%] | % internalization (pHrodo surrogate assay, vs 225 mAb) [2] [%] | % survival (DM1 secondary-conjugate ADC surrogate assay, vs mouse IgG) [3] [%] | % survival (DM1 secondary-conjugate ADC surrogate assay, vs mouse IgG) [4] [%] | ELISA absorbance 405 nm [5] [A405] | ELISA absorbance 405 nm [6] [A405] | ELISA absorbance 405 nm [7] [A405] | ELISA absorbance 405 nm [8] [A405] | binding result [9] | ELISA absorbance 405 nm [10] [A405] | ELISA absorbance 405 nm [11] [A405] | ELISA absorbance 405 nm [12] [A405] | ELISA absorbance 405 nm [13] [A405] | binding result [14] | Kd [15] [nM] | IC50 of growth inhibition, U87MG EGFRvIII cells [16] [nM] | other results |
| --- | --- | --- | --- | --- | --- | --- | --- | --- | --- | --- | --- | --- | --- | --- | --- | --- | --- |
| F266-11C8 (antibody, V domains shown, Mouse hybridoma mAb; also called 11H5 (11C8)) VH: QIQLVQSGPELKKPGETVKISCKASGYTFTTAGMQWVQKMPGKGFKWIGWINTHSGDPKYAEDFKGRFAFSLETYASTAYLQISNLKNEDTASYFCARTHIYDGYNYAMDYWGQGTSVTVSS VL: DVVMTQTPLSLPVSLGDQASISCRSSQSLVYSNGNTYLHWYLQKPGQSPKLLIYKVSNRFSGVPDRFSGSGSGTDFTLKISRVEAEDLGVYFCSQSTHVPFTFGSGTKLEIK | 136 | < 2 | 55 | > 98 | 1.56 | 2.1 | 0.011 | 0.009 | binds | 1.72 | 1.71 | 0 | -0.001 | no binding (tested: 100 nM highest concentration) | 3.5 |  |  |
| F266-11B1 (antibody, V domains shown, Mouse hybridoma mAb) VH: QIQLVQSGPELKKPGETVKISCKASGYTFTTAGMQWVKKMPGKGFKWIGWINTHSGDPKYAEDFKGRFAFSLETYASTAYLQISNLKNEDTASYFCARTHIYDGYNYAMDYWGQGTSVTVSS VL: DVVMTQTPLSLPVSLGDQASISCRSSQSLVYSNGNTYLHWYLQKPGQSPKLLIYKVSNRFSGVPDRFSGSGSGTDFTLKISRVEAEDLGVYFCSQSTHVPFTFGSGTKLEIK | 131 | < 2 | 62 | > 98 | 1.67 | 2.2 | 0.034 | 0.032 | binds | 1.72 | 1.77 | 0.002 | 0.004 | no binding (tested: 100 nM highest concentration) | 2.2 |  |  |
| F266-11H3 (antibody, V domains shown, Mouse hybridoma mAb) VH: QIQLVQSGPELKKPGETVKISCKASGYTFTTAGMQWVQKMPGKGFKWIGWINTHSGDPKYAEDFKGRFAFSLETYASTAYLQISNLKNEDTATYFCARTHIYDGYNYAMDYWGQGTSVTVSS VL: DVVMTQTPLSLPVSLGDQASISCRSSQSLVYSNGNTYLHWYLQKPGQSPKLLIYKVSNRFSGVPDRFSGSGSGTDFTLKISRVEAEDLGVYFCSQSTHVPFTFGSGTKLEIK | 131 | < 2 | 62 | > 98 | 1.66 | 2.1 | 0.053 | 0.041 | binds | 1.78 | 1.79 | 0.001 | 0 | no binding (tested: 100 nM highest concentration) | 2.5 |  |  |
| hFc-13.1.2-MMAE (antibody, human IgG1, kappa, V domains shown, MC-vc-PAB-MMAE on reduced interchain cysteines) VH: QVQLVESGGGVVQPGRSLRLSCAASGFTFSSYGMHWVRQAPGKGLEWVAVIWYDGSNKYYVDSVKGRFTISRDNSKNTLYLQMNSLRAEDTAVYYCARDGWQQLAPFDYWGQGTLVTVSS VL: not shown |  |  |  |  |  |  |  |  |  |  |  |  |  |  |  | 1.9 | IC50 of growth inhibition, DKMG EGFRvIII cells [16]: 2.5 nM |
| hFc-13.1.2 (antibody, human IgG1, kappa, V domains shown) VH: QVQLVESGGGVVQPGRSLRLSCAASGFTFSSYGMHWVRQAPGKGLEWVAVIWYDGSNKYYVDSVKGRFTISRDNSKNTLYLQMNSLRAEDTAVYYCARDGWQQLAPFDYWGQGTLVTVSS VL: not shown |  |  |  |  |  |  |  |  | binds |  |  |  |  |  |  |  | binding result [17]: no binding; Bmax [18]: 16500; Kd [19]: 0.947 nM; Kd [20]: 5.22 nM |
| hFc-4E11-MMAE (antibody, human IgG1, kappa, V domains shown, MC-vc-PAB-MMAE on reduced interchain cysteines) VH: DVQLQESGPGLVKPSQSLSLTCTVTGYSITSDYAWNWIRQFPGNKLEWMGYIGYNGRTSYNPSLKSRISITRDTSKNQFFLQLNYVTTEDTATFYCARLGRGFAYWGQGTLVTVSA VL: DILMTQSPSSMSVSLGDTVSITCHASQGINSNIGWLLQKPGKSFKGLIYHGTNLEDGVPSRFSGSGSGTDYSLTISSLESEDFADYYCVQYAQFPYTFGGGTKLEIKR |  |  |  |  |  |  |  |  |  |  |  |  |  |  |  | 0.2 |  |
| F260-5G6 (antibody, V domains shown, Mouse hybridoma mAb) VH: EVQLQQSGAELARPGASVKMSCKASGYTFTSYWMHWVKQRPGQGLEWIGAIYPGNSDISYNQKFKGKAKLTAVTSATTAYMELSSLTNEDSAVYYCTLYDYDPDYWGQGTTLTVSS VL: not shown | 102 | < 2 | 55 | 91 | 1.45 | 1.94 | 0 | 0.005 |  | 1.74 | 1.74 | 0.001 | 0 | no binding (tested: 100 nM highest concentration) | 4.2 |  | binding result [21]: binds |
| hFc-5G6 (antibody, human IgG1, kappa, V domains shown, Chimeric antibody, mouse variable regions on human IgG1 / human kappa, produced in CHO cells; also called chimeric 5G6) VH: EVQLQQSGAELARPGASVKMSCKASGYTFTSYWMHWVKQRPGQGLEWIGAIYPGNSDISYNQKFKGKAKLTAVTSATTAYMELSSLTNEDSAVYYCTLYDYDPDYWGQGTTLTVSS VL: not shown |  |  |  |  |  |  |  |  |  |  |  |  |  |  |  |  | binding result [17]: no binding; Bmax [18]: 16900; Kd [19]: 0.832 nM; Kd [20]: 1.53 nM |
| hFc-5G6-MMAE (antibody, human IgG1, kappa, V domains shown, MC-vc-PAB-MMAE on reduced interchain cysteines) VH: EVQLQQSGAELARPGASVKMSCKASGYTFTSYWMHWVKQRPGQGLEWIGAIYPGNSDISYNQKFKGKAKLTAVTSATTAYMELSSLTNEDSAVYYCTLYDYDPDYWGQGTTLTVSS VL: not shown |  |  |  |  |  |  |  |  |  |  |  |  |  |  |  | 0.3 | IC50 of growth inhibition, DKMG EGFRvIII cells [16]: 0.3 nM |
| F263-1A8 (antibody, V domains shown, Mouse hybridoma mAb) VH: EVQLQQSGAELVRPGALVKLSCKASGFNIKDYYMHWVKQRPEQGLEWIGWIDPENGNTIYDPKFQGKATITADTSSNTAYLQLSSLASEDTAVYYCARGWLLLWGQGTTLTVSS VL: not shown | 100 | < 2 | 65 | > 98 | 1.67 | 2.09 | 0.016 | 0.013 |  | 1.79 | 1.71 | 0.002 | 0.001 | no binding (tested: 100 nM highest concentration) | 2 |  | binding result [21]: binds |
